In one data set the target is T1, MatP (Escherichia coli, UniProt P0A8N0 1-150).
T1 sequence: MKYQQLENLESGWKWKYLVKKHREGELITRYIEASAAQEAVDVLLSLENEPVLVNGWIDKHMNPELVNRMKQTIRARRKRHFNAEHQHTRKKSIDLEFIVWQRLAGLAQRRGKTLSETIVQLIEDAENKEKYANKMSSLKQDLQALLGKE
The data set is described as follows: fluorescence anisotropy; 300 mM KCl, 5 mM MgCl2; Kd in MatP dimer units; 1 dimer per DNA; 50 mM Tris-HCl, 300 mM KCl, 5 mM MgCl2, pH 7.5; temperature not stated; matS-Fl 10 nM in anisotropy titrations. To be noted: protein: recombinant; tags: untagged (N-terminal His6 removed by thrombin); chain copies: 2; label: 5'-fluorescein on sense strand. In general terms: In fluorescence polarisation assays a small probe gives low polarisation when free and higher when bound to something large.

Data set [1] deals with the molecule itself. Nature of the data set: AUC + other: light scattering; MatP alone in solution, working buffer (50 mM Tris-HCl, 300 mM KCl, 5 mM MgCl2, pH 7.5); details in the supplement to Fig. S7.

A word on the Kd: it is the constant that tells how readily two partners part at equilibrium. In general, stoichiometry N refers to the number of molecules, sites or subunits per partner or assembly.

B1: matS-Fl (matS19) (dsDNA)
DNA 1: AAAGTGACACTGTCACCTT
DNA 2: AAGGTGACAGTGTCACTTT
Regarding B1, in the data set with MatP, the Kd was 15 ± 2 nM.

B2: MatP (natural protein, Escherichia coli, UniProt P0A8N0 1-150, looked up)
chain: MKYQQLENLESGWKWKYLVKKHREGELITRYIEASAAQEAVDVLLSLENEPVLVNGWIDKHMNPELVNRMKQTIRARRKRHFNAEHQHTRKKSIDLEFIVWQRLAGLAQRRGKTLSETIVQLIEDAENKEKYANKMSSLKQDLQALLGKE
notes: also called recombinant untagged MatP; not shown: His6, N-terminal, cleaved
For B2, the “stoichiometry N” value in data set [1] was determined as 2.

The values are drawn from article PMC6538776, “The Bacterial DNA Binding Protein MatP Involved in Linking the Nucleoid Terminal Domain to the Divisome at Midcell Interacts with Lipid Membranes” (mBio, 2018).
